Here are results for 2 substances from patent US20070185028A1, “Compositions and methods for treatment of protein misfolding and protein aggregation diseases” (priority 2004, published 2007).

One series has as its target T1, transthyretin (TTR) (Homo sapiens, UniProt P02766).
T1 construct: purchased Sigma-Aldrich
Briefly: Transthyretin fibrillation ThT assay. The following applies: 1:1 ratio. The series is classed as biochemical. The method, then: The effect of the five αB crystallin peptides ST, DR, HG, LT, and ER on TTR fibrillation was measured using the ThT fluorescence assay (FIG. 26). The formation and inhibition of TTR fibrils was qualitatively verified by fluorescence and bright-field microscopy. The concentration of the peptides was varied relative to TTR to establish a concentration curve. In addition, the effect of a control neuropeptide (AT1) with no TTR fibril inhibition activity was measured and compared to the effect of the αB crystallin peptides on TTR fibril formation. The ThT fluorescence of 16 μM TTR alone incubated at 37° C. for 4 hrs, increased from ˜15,000 to ˜45,000 RFU. Addition of 3.2 μM αB crystallin peptides, ST, DR, LT, and HG decreased the ThT fluorescence of TTR by 15-70%. In contrast, 3.2 μM ER had no effect on TTR fibril formation. Increasing the concentration of the ER peptide to 16 μM decreased the ThT fluorescence of TTR by 60%. The negative control peptide AT1 had no effect on TTR fibrillation even at a concentration as high as 160 μM. All five αB crystallin peptides inhibited TTR fibrillation at sub-stoichometric and stoichometric concentrations (3.2 μM and 16 μM).
The Thioflavin T (ThT) fluorescence of TTR in the presence of varying concentrations of αB crystallin peptides and controls was measured. […] When the concentration of the peptides was increased to 16 μM (1:1::peptide:TTR), the αB crystallin peptides ST, DR, HG, LT and ER decreased the ThT fluorescence by 8-72%. When the concentration of the peptides was increased further to 80 μM ([…]), all of the five αB crystallin peptides ST, DR, HG, LT, and ER decreased the ThT fluorescence by 40-70%. […] The formation and inhibition of TTR fibrils was verified microscopically.
Transthyretin fibrillation ThT assays were performed as described previously. Hurshman et al., Biochemistry 43:7365-81, 2004; O'Nuallain and Wetzel, Proc Natl Acad Sci USA 99:1485-90, 2002. Peptides were dissolved to 2 mM in 0.25% DMSO and diluted accordingly, while TTR was dissolved in 200 mM KCl, 2 mM EDTA, 5 mM PBS, 200 mM sodium acetate, pH 4.4. For the 5::peptide:TTR assay, 10 μL of 160 μM peptide was mixed with 10 μL of 32 μM TTR, and 1 μL of 1 mM ThT. For the 1:1::peptide:TTR assay, 10 μL of 32 μM peptide was mixed with 10 μL of 32 μM TTR and 1 μL of 1 mM ThT. For the 1:5::peptide:TTR assay, 10 μL of 6.4 μM peptide was mixed with 10 μL of 32 μM TTR and 1 μL of 1 mM ThT. ThT fluorescence was measured using a Perkin Elmer Victor^3 V plate reader. Assays were performed in 384-well fluorescence plates in duplicates or triplicates. Samples were incubated at 37° C. ThT fluorescence was measured continuously for 150 minutes. The effect of the peptides and APS was calculated as percentage fibril formation relative to TTR alone (100%) at the end of 150 minutes.

Series [1] has as its target T2, porcine citrate synthase (CS) (Sus scrofa, UniProt P00889).
T2 construct: purchased Roche Diagnostics, IN 103 381
T2 sequence (P00889 28-464): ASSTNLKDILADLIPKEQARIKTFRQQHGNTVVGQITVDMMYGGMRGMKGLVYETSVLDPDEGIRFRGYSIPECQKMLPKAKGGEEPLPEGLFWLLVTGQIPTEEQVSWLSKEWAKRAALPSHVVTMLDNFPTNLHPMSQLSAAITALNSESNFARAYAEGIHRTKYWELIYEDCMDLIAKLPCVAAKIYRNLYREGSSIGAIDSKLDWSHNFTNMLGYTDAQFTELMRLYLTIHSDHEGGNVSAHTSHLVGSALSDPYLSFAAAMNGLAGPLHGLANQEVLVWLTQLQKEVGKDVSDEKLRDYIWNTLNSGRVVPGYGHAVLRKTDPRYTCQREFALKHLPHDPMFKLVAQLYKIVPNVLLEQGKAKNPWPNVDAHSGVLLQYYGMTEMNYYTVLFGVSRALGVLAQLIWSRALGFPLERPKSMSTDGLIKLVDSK
Briefly: αB crystallin protein pin array with citrate synthase. It is filed as binding. The following applies: CS as target protein in the pin array. From the text:
(§1) Synthesis of Pins, binding and detection of peptides binding to ligand proteins. The αB crystallin protein pin array was used to measure the interaction between peptides and chaperone target proteins including bovine βH crystallin, human γD crystallin, equine alcohol dehydrogenase (ADH) and porcine citrate synthase (CS) as described (FIG. 12). Ghosh and Clark, Protein Sci 14: 684-95, 2005.
(§2) Refer to the methods section for detailed protocols. The absorbance corresponding to the blue coloration in each well was measured at λ=450 nm and plotted against the amino acid sequence of the corresponding peptide in that well (FIGS. 13 and 14). Wells containing peptides that have strong interactions with target proteins are dark blue and wells containing peptides that have weak or no interaction with target proteins are light blue or clear.
(§3) The purity of the target proteins used in the pin array assays, bovine βH crystallin, human γD crystallin, equine alcohol dehydrogenase (ADH) and porcine citrate synthase (CS) were determined to be >90% by SDS-PAGE. In addition, primary antibodies for each target protein were specific to that target protein and consequently contaminating proteins that may bind to the peptides will not be detected. Eighty-four sequential and overlapping peptide fragments corresponding to residues 1-175 of human αB crystallin were synthesized employing a simultaneous peptide synthesis strategy developed by Geysen, called Multipin Peptide Synthesis (Mimotopes, San Diego, Calif.). Geysen, Southeast Asian J Trop Med Public Health 21: 523-33, 1990; Chin et al., J Org Chem 62: 538-539, 1997. Peptides were immobilized on derivatized polyethylene pins arranged in a microtiter ELISA plate format. Each peptide was eight amino acids in length and consecutive peptides were offset by two amino acids. All peptides were bound covalently to the surface of the plastic pins. The first peptide was 1MDIAIHHP8 and the last peptide was 168PAVTAAPK175 for human αB crystallin.
(§4) Ghosh and Clark, Protein Sci 14: 684-95, 2005. […] The intensity of the blue color in the wells was measured at 450 nm using an ELISA plate-reader (BioTek, Winooski, Vt.). The intensity of the blue color (plotted on the X-axis) was a measure of the interaction between αB crystallin peptides (plotted on the Y-axis) and target proteins. To measure the effect of temperature on the interactions between interactive peptides and the target proteins, the target proteins were heated in a water-bath at 45° C. for fifteen minutes prior to use. Pin arrays are unable to differentiate between monomers, dimers or oligomers of target proteins that exist in solution. Instead, pin arrays are very sensitive detectors of interactions between individual peptides and the entire population (monomers, dimers or oligomers) of specific target proteins that may exist in solution under specific conditions. Each target protein was assayed two to five times. A single pin array was used for all experiments and no change in interactions was observed after more than thirty repetitions. The last three peptides of the protein pin array, 163REEKPAVT170, 165EKPAVTAA172, 167PAVTAAPK174, correspond to the epitope (163REEKPAVTAAPKK175) recognized by the primary antibody for human αB crystallin. A positive reaction is observed for these three peptides in the absence of human αB crystallin as the ligand due to direct binding of the anti-human αB crystallin antibody to these three peptides. The loss of efficiency for the pin array was measured using this assay. The loss of efficiency for the pin array was determined to be <5% by after more than 30 assays.
The pattern of absorbance at λ=450 nm when αB crystallin peptides were assayed with unheated and pre-heated CS was similar to the absorbance pattern obtained with unheated and pre-heated βH/γD crystallin and ADH (FIG. 18). […]

The target of the next series is beta amyloid (Homo sapiens, UniProt P05067). Briefly: αB crystallin protein pin array, binding of beta amyloid. Conditions: immobilized 8-mer peptide; absorption at 450 nm. From the text: αB Crystallin peptides that bind the target protein beta-amyloid were identified by screening an αB crystallin protein pin array, which provides a systematic method for evaluating interactions between peptides corresponding to residues 1-175 of human αB crystallin and selected target proteins in a parallel and simultaneous manner.
Peptides were synthesized on derivatized polyethylene pins arranged in a microtiter plate format. Each peptide was 8 amino acids in length and consecutive peptides were offset by 2 amino acids. All peptides were covalently bonded to the surface plastic pins. The first immobilized peptide was 1MDIAIHHP8 and the last peptide was 168PAVTAAPK175 for the human αB crystallin.
After synthesis, the pins were pre-coated at room temperature with 2% Bovine Serum Albumin (BSA), 0.1% Tween-20 and 0.1% Sodium azide in 10 mM phosphate buffered saline pH 7.2 (PBS) for 1 hr, and washed three times for 10 mins each with 10 mM PBS. To screen for binding to the peptides, fixed concentrations of the target protein beta amyloid was dissolved in 10 mM PBS, containing 0.05% Tween-20, added to each well and incubated for 1 hr at room temperature. The pin array was washed three times for 10 mins each with 10 mM PBS, containing 0.05% Tween-20. Monoclonal or polyclonal primary antibodies for the target protein beta amyloid was diluted into PBS buffer, added to each well and incubated for 1 hr at room temperature. Subsequently, the pin array was washed three times for 10 mins each with 10 mM PBS containing 0.05% Tween-20. Anti-rabbit horse-radish peroxidase conjugate secondary antibodies was diluted into PBS buffer, added to each well and incubated for 1 hr at room temperature. The pin array was washed three times for 10 mins each with 10 mM PBS containing 0.05% Tween-20. A chromogenic substrate of horse-radish peroxidase 3,3′,5,5′-Tetramethylbenzidine (TMB) (Pharmingen, San Diego, Calif.) which is colorless was added, and the reaction was carried out for 45 min.
The reaction was stopped by adding 6N sulfuric acid, which changes the color from blue to yellow. The absorption at 450 nm was measured by an ELISA reader (BioTek, Winooski, Vt.).
The pin array was regenerated by sonication in a water bath (VWR Aquasonic, West Chester, Pa.) with 100 mM PBS, containing 1% Sodium dodecyl sulfate (SDS) and 0.1% 2-Mercaptoethanol@60° C. for 10 mins. Next, the pin array was rinsed three times in deionized water, preheated to 60° C. for 30 secs each time, and shaken in water preheated at 60° C. for 30 min. The pin array was then washed with methanol at 60° C. for 15 secs and air-dried and stored @−20° C. for future use. Each target protein was assayed 2-5 times against the human αB crystallin protein pin array peptides to verify the reproducibility of the results. Peptides numbered 5, 7, 8, 9, 13, 19, 22, 23, 24, 27, 35, 38, 45, 51, 52, 56, 57, 61, 66, 71, 72, and 79 in Table 2 reproducibly tested positive in the protein pin assay.

The target of the next series is T3, human γD crystallin (Homo sapiens, UniProt P07320).
T3 construct: made in house
T3 sequence (P07320 1-174): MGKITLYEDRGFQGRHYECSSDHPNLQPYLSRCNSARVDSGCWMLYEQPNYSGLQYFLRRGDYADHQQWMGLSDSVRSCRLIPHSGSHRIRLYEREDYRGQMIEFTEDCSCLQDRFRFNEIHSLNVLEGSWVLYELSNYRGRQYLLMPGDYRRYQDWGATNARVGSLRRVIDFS
Briefly: αB crystallin protein pin array with γD crystallin. Conditions: unheated γD crystallin; similar maxima pre-heated 45° C. It is filed as binding.
From the text: as §1, §2, §3, §4
When βH crystallin was replaced with γD crystallin, a native protein constituent of lens cytoplasm from the same gene family as the β crystallins, as the ligand in the pin array, twelve interactive sequences were identified (FIG. 14: striped bars). […]

Series [2] deals with T4, equine alcohol dehydrogenase (ADH) (Equus caballus, UniProt P00327).
T4 construct: purchased Sigma-Aldrich, MO 05646
T4 sequence (P00327 whole entry): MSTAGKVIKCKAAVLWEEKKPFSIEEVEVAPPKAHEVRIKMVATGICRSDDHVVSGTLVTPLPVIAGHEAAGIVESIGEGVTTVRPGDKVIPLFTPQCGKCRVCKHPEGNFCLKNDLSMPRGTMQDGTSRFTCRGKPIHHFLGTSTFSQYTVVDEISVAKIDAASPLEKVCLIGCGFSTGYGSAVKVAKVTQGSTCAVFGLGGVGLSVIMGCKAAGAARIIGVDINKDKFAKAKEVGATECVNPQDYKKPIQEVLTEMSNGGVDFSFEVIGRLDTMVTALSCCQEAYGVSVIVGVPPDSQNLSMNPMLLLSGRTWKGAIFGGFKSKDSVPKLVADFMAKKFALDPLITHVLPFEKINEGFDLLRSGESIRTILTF
Briefly: αB crystallin protein pin array with alcohol dehydrogenase. It is filed as binding. Conditions: ADH as ligand in the pin array.
From the text: as §1, §2, §3, §4
The pattern of absorbance at k=450 nm when αB crystallin peptides were assayed with unheated and pre-heated ADH was similar to the absorbance pattern obtained with unheated and pre-heated βH/γD crystallin (FIG. 17). […]

For series [3] the following is noted: as provided by manufacturer (Mimotopes); cited from earlier work.

As to HEER, the “inhibition of TTR fibrils, HG derived peptides” value with transthyretin (TTR) is around 100%.

As to SLSPFYLR [Peptide 22], the “absorbance at 450 nm, interaction with CS” value in series [1] is reported as “absorbance maxima”. In the series with beta amyloid, the “binding of beta amyloid in the protein pin assay” value is listed as “positive”. Also, the “absorbance at 450 nm, interaction with γD crystallin” value in the series with human γD crystallin was “maximum absorbances”. Further, the “absorbance at 450 nm, interaction with ADH” value in series [2] is reported as “Maximum absorbances”. Besides, the Hydrophobicity in series [3] was 0.72.
